How the values were obtained:
[1] = target: cynomolgus 4-1BB extracellular domain, His tag (cynomolgus) (UniProt A9YYE7); test: SPR, Biacore T200; antibody captured on Protein G chip, cynomolgus 4-1BB ECD.His as analyte
[2] = target: human 4-1BB, full-length, on cells (human) (UniProt Q07011); test: flow cytometry on human 4-1BB-expressing CHO-K1 cells, PE goat anti-human IgG Fc, MFI
human 4-1BB, full-length, on cells (human), sequence (Q07011 24-255 limits assumed): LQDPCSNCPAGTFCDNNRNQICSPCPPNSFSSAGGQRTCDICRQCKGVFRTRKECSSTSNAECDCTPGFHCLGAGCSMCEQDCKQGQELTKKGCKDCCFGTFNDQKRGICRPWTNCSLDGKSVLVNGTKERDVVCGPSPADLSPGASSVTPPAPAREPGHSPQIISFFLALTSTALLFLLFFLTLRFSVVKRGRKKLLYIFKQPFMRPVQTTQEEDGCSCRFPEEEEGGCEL

BMK4.hIgG2L(Pfizer) (antibody), sequence (VH): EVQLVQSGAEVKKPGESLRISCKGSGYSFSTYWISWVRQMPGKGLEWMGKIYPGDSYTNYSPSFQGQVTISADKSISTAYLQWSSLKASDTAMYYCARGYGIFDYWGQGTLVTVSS
BMK4.hIgG2L(Pfizer) (antibody), sequence (VL): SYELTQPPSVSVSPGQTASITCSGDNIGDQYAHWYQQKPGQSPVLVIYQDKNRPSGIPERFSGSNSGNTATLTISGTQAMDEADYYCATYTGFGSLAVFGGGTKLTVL
cynomolgus 4-1BB extracellular domain, His tag (cynomolgus), sequence (A9YYE7 entry or part of it): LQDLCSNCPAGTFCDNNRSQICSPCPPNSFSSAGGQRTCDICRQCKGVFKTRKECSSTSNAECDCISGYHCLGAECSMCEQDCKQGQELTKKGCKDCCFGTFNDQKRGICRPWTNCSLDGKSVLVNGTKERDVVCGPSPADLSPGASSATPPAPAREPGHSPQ

A Kd [1] of 16 nM was found for BMK4.hIgG2L(Pfizer) (antibody) in this work.

An EC50 (read off the curve) [2] of 0.2 nM was found for WBP342-BMK3.hIgG4 (antibody) in this work.
